The numbers were not newly measured in paper PMC8316261, which cites them from elsewhere.

This data set has as its target C5aR (Homo sapiens) (UniProt P21730).
UniProt P21730, sequence (P21730 whole entry): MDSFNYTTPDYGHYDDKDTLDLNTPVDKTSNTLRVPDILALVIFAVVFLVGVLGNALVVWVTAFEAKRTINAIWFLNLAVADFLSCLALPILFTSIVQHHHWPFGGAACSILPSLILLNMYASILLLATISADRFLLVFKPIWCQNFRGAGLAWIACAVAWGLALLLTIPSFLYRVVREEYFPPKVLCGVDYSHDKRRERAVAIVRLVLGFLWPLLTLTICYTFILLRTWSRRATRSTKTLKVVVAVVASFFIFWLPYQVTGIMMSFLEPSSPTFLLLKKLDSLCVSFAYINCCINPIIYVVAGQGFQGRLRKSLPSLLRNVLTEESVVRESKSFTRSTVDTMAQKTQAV

As a reminder, the Kd is a measure of binding affinity in units of concentration. On to C5a C5a (from UniProt P01031), for which the Kd was 1 nM.
